We go through 2 substances from US20170183407A1.

The test addresses CD19 on tumor target cells (UniProt P15391). Nature of the test: cell-based or functional assay.
UniProt P15391, sequence (P15391 20-556 limits assumed): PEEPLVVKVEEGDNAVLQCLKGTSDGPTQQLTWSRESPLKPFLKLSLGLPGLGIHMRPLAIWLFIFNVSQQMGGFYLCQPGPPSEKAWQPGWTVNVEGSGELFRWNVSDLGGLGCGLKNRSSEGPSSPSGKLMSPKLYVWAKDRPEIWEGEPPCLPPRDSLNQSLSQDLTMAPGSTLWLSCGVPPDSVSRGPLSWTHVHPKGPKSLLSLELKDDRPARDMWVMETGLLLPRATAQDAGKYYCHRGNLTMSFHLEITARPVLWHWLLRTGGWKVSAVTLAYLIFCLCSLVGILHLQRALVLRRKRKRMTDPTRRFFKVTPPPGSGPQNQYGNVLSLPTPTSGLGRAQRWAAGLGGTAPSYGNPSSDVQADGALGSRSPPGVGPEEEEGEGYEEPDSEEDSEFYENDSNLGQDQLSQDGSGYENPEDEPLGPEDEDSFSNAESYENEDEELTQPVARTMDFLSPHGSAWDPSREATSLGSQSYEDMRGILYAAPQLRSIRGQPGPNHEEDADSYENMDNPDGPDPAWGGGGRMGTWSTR

Substance “Clinical-grade CD19RCD28mζ CAR (CoOpCD19RCD28ζ), on T cells” registered a percentage of specific cell lysis (4-hour Chromium Release Assay) of 49%.
In the case of “EZ CAR CD19RCD28mζ CAR (CD19-specific CAR activated through chimeric CD28/CD3-zeta, made with the EZ CAR platform), on T cells”, the percentage of specific cell lysis (4-hour Chromium Release Assay) was 52%.
